Series [1] deals with T1, SARS-CoV-2 nucleocapsid (N) protein, wild type (SARS-CoV-2 (wild type), UniProt P0DTC9 1-419). Briefly: BLI; BLI ([…], DPBS + 0.5 mM MgCl2 + 1 mM CaCl2, pH 7.4; […] (PBST). To be noted: protein: commercial; tags: His; chain copies: 2. (In general: BLI is a label-free optical method that tracks binding on a fibre tip over time.)
Series [2] concerns the target T1, SARS-CoV-2 nucleocapsid (N) protein, …. The experiment in a line: BLI; aptamer on streptavidin sensor, PBST; BLI ([…], DPBS + 0.5 mM MgCl2 + 1 mM CaCl2, pH 7.4; […] (PBST). To be noted: protein: commercial; tags: His; chain copies: 2.
Another series deals with SARS-CoV-2 S1 protein (SARS-CoV-2, UniProt P0DTC2 13-685). The experiment in a line: BLI; BLI ([…], DPBS + 0.5 mM MgCl2 + 1 mM CaCl2, pH 7.4; […] (PBST). Conditions: protein: commercial.
For series [3], the target named is T1, SARS-CoV-2 nucleocapsid (N) protein, …. The experiment in a line: BLI; N protein on Ni-NTA sensor; BLI ([…], DPBS + 0.5 mM MgCl2 + 1 mM CaCl2, pH 7.4; […] (PBST). Conditions: protein: commercial; tags: His; chain copies: 2.
In series [4] the target is SARS-CoV-2 N protein, in-house (SARS-CoV-2 (wild type), UniProt P0DTC9 1-419). Briefly: BLI; aptamer on streptavidin sensor, PBST; BLI ([…], DPBS + 0.5 mM MgCl2 + 1 mM CaCl2, pH 7.4; […] (PBST). Conditions: protein: recombinant; chain copies: 2.

Usually Kd stands for the equilibrium constant for the complex coming apart.

B1: NSP3 (ssDNA)
DNA: CTCCTCTGACTGTAACCACGCAGCGTCACGTGTTGTTCCCCATTGTACTGATTCGTCGTGGCATAGGTAGTCCAGAAGCC
As for B1, in series [1], the Kd is 8.6 ± 1.06 nM. TAACCACGGCGCAAGCCGGGGTGTACGTGTTATACGTGCGTGTATCGAG (ssDNA) [biotinylated tNSP1]: the Kd in series [2] worked out at 4.83 ± 1.09 nM. Further, the binding result in the series with SARS-CoV-2 S1 protein is on record as “no binding”.

In the case of TAACCACGGCGCAAGCCGGGGTGTACGTGTTATACGTGCGTGTATCGAG (ssDNA) [tNSP1], the Kd in series [3] amounted to 4.53 ± 0.96 nM.

B2: tNSP12 (ssDNA)
DNA: TGTAACCACGTGGTTCGCCCAGTTCCGTTCAATACACTCAACCCTGCACGGCATAGGTA
Take B2: the Kd in series [1] amounted to 6.05 ± 2.41 nM.

B3: NSP2 (ssDNA)
DNA: CTCCTCTGACTGTAACCACGTATTGCGTTCCAGTCCCTATGACCAACGTCACAATAAGTCGCATAGGTAGTCCAGAAGCC
B3: in series [1], the Kd was 4.38 ± 1.21 nM.

Take CTTATGCACCAGGGGCCCGGTTCGGGCAGGCGCAAACACGGCATAGG (ssDNA) [tNSP10]: the Kd in series [1] was 8.6 ± 1.2 nM.

B4: biotinylated tNSP2 (ssDNA)
DNA: CTGACTGTAACCACGTATTGCGTTCCAGTCCCTATGACCAACGTCACAATAAGTCGCATAGGTA
For B4, in series [2], the Kd is 4.51 ± 1.5 nM. For the same molecule, in the series with SARS-CoV-2 S1 protein, the binding result is reported as “no binding”.

B5: tNSP2 (ssDNA)
DNA: CTGACTGTAACCACGTATTGCGTTCCAGTCCCTATGACCAACGTCACAATAAGTCGCATAGGTA
Take B5: the Kd in series [3] was 3.04 ± 1.53 nM.

Turning to CAGCGTCACGTGTTGTTCCCCATTGTACTGATTCGTCGTGGCAT (ssDNA) [biotinylated tNSP3], the Kd came out at 7.52 ± 0.5 nM in series [4] and 2.91 ± 1.02 nM in series [2]. Also, the binding result in the series with SARS-CoV-2 S1 protein is given as “no binding”. On to CAGCGTCACGTGTTGTTCCCCATTGTACTGATTCGTCGTGGCAT (ssDNA) [tNSP3], for which the Kd in series [3] is 5.77 ± 1.17 nM.

As for ATTCATGCGCCAATAGTGGTTTGGAAATGTCTCCCCATACGCATAG (ssDNA) [tNSP5], in series [1], the Kd came out at 12.6 ± 2.56 nM.

B6: A48 (ssDNA)
DNA: GCTGGATGTCGCTTACGACAATATTCCTTAGGGGCACCGCTACATTGACACATCCAGC
Take B6: the Kd in series [1] is 6.46 ± 1.04 nM.

B7: tNSP9 (ssDNA)
DNA: TGTAACCACGTGCTAGATTACGTAACTGGTTGCTACGGGTTTCATCCTCGGCATAGGTA
With B7, the Kd in series [1] was determined as 22.2 ± 1.87 nM.

B8: NSP1 (ssDNA)
DNA: CTCCTCTGACTGTAACCACGGCGCAAGCCGGGGTGTACGTGTTATACGTGCGTGTATCGAGCATAGGTAGTCCAGAAGCC
In the case of B8, the Kd in series [1] came out at 7.86 ± 1.17 nM.

Values taken from PMC9927813, “Discovery of DNA aptamers targeting SARS-CoV-2 nucleocapsid protein and protein-binding epitopes for label-free COVID-19 diagnostics”.
